Experimental data taken from patent US20200308261 (published 2020).
Each block holds one binder with its values, some of them ahead of it.

Legend:
rodent Aβ 3pE-40 = target: T1, rodent Aβ 3pE-40 (rodent); test: ELISA sandwich, up to 10 ng/mL
T1 chain: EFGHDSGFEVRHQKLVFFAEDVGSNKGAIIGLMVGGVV

human Aβ 11pE-40 = target: T2, human Aβ 11pE-40 (human); test: ELISA sandwich, up to 10 ng/mL
T2 chain: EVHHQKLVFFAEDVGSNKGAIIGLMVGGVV

human Aβ 1-40 [1] = target: human Aβ 1-40 (human); test: ELISA sandwich, up to 10 ng/mL
human Aβ 11pE-42 = target: T3, human Aβ 11pE-42 (human); test: ELISA sandwich, up to 10 ng/mL
T3 chain: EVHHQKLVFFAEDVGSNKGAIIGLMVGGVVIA

human Aβ 1-42 = human Aβ 1-42 (human); test: ELISA sandwich, up to 10 ng/mL
human Aβ 1-40 [2] = target: human Aβ 1-40 (human); test: SPR up to 50 nM

binding result (rodent Aβ 3pE-40): no binding
binding result (human Aβ 11pE-40): no binding
binding result (human Aβ 1-40 [1]): no binding
binding result (human Aβ 11pE-42): no binding
binding result (human Aβ 1-42): no binding
B1: BAMB31 (antibody, V domains shown)
VH: EIQLQQSGPELVKPGTSVKVSCKASGHVFTSYDMYWVKQSHGKSLEWIGYIDSDNGDTSYNQKFKGKATLTVDKSSSTAYMHLNSLTSEDSAVYYCAYYRYAMDYWGQGTSVTVSS
VL: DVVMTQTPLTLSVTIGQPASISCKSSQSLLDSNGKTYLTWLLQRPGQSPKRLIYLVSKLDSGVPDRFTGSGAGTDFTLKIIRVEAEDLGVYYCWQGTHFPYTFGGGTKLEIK

binding result (human Aβ 1-40 [2]): no binding
B2: BAMB31_2a (mIgG2a) (antibody, V domains shown)
VH: B1 VH
VL: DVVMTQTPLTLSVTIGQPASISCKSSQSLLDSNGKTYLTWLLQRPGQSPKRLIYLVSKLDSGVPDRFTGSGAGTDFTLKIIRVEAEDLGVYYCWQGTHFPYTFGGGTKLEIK
